Assay [1] concerns the target MgF-actin (rabbit skeletal muscle actin, filament) (rabbit) (UniProt P68135).
Assay [2] has the same target. The source holds these as a separate data set.
The target is the same in assay [3]. The source holds these as a separate data set.

Histatin-3 (peptide), sequence (P15516 20-51): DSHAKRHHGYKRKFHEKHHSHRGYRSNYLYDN

Consider Histatin-3 (peptide), for which the bundling of 8 μM F-actin (low speed centrifugation): histatin concentration for 50% bundling in assay [1] came to 5 µM. In assay [2], the NaCl concentration (0-200 mM) at which bundles of 4 μM F-actin induced by 16 μM histatin are largely dissociated (low speed centrifugation) was 100 mM. Further, the decrease of the fluorescence emission at 581 nm of 5 μM TRC-F-actin (TRC on Gln41) by 8 μM histatin-3 in assay [3] came out at 22.3%.

Source of the values: article PMC5340040.
